# Reference: the Human Domainome abundance scans (Beltran et al. 2025)
# ± gives the uncertainty stated by the source.
# B1: Ankyrin repeat and SAM domain-containing protein 6, residues 774 to 836; numbered along this chain, Q68DC2 (parent)
# chain: DEDELTGILKKLSLEKYQPIFEEQEVDMEAFLTLTDGDLKELGIKTDGSRQQILAAISELNAG
# Variants of: B1
# Experiment: abundance fitness (aPCA) (normalised: wild type 0, dead -1); higher = more abundant; growth selection in yeast, the domain comes from the species named
# Conditions: Homo sapiens
row,Variant,abundance fitness
1,DEDELTGILKKLSLEKYQPHFEEQEVDMEAFLTLTDGDLKELGIKTDGSRQQILAAISELNAG [I20H],-0.213 ± 0.16
2,DEDELTGILKKLSLEKYQPAFEEQEVDMEAFLTLTDGDLKELGIKTDGSRQQILAAISELNAG [I20A],-0.111 ± 0.059
3,DEDELTGILKKLSLEKYQPKFEEQEVDMEAFLTLTDGDLKELGIKTDGSRQQILAAISELNAG [I20K],-0.104 ± 0.07
4,DEDELTGILKKLSLEKYQPEFEEQEVDMEAFLTLTDGDLKELGIKTDGSRQQILAAISELNAG [I20E],-0.299 ± 0.12
5,DEDELTGILKKLSLEKYQPCFEEQEVDMEAFLTLTDGDLKELGIKTDGSRQQILAAISELNAG [I20C],0.015 ± 0.074
6,DEDELTGILKKLSLEKYQPLFEEQEVDMEAFLTLTDGDLKELGIKTDGSRQQILAAISELNAG [I20L],-0.124 ± 0.06
7,DEDELTGILKKLSLEKYQPGFEEQEVDMEAFLTLTDGDLKELGIKTDGSRQQILAAISELNAG [I20G],-0.494 ± 0.065
8,DEDELTGILKKLSLEKYQPDFEEQEVDMEAFLTLTDGDLKELGIKTDGSRQQILAAISELNAG [I20D],-0.091 ± 0.15
9,DEDELTGILKKLSLEKYQPFFEEQEVDMEAFLTLTDGDLKELGIKTDGSRQQILAAISELNAG [I20F],-0.352 ± 0.17
10,DEDELTGILKKLSLEKYQWIFEEQEVDMEAFLTLTDGDLKELGIKTDGSRQQILAAISELNAG [P19W],-0.208 ± 0.14
11,DEDELTGILKKLSLEKYQTIFEEQEVDMEAFLTLTDGDLKELGIKTDGSRQQILAAISELNAG [P19T],-0.138 ± 0.078
12,DEDELTGILKKLSLEKYQLIFEEQEVDMEAFLTLTDGDLKELGIKTDGSRQQILAAISELNAG [P19L],-0.456 ± 0.072
13,DEDELTGILKKLSLEKYQQIFEEQEVDMEAFLTLTDGDLKELGIKTDGSRQQILAAISELNAG [P19Q],-0.21 ± 0.16
14,DEDELTGILKKLSLEKYQGIFEEQEVDMEAFLTLTDGDLKELGIKTDGSRQQILAAISELNAG [P19G],-0.116 ± 0.055
15,DEDELTGILKKLSLEKYQAIFEEQEVDMEAFLTLTDGDLKELGIKTDGSRQQILAAISELNAG [P19A],-0.073 ± 0.068
16,DEDELTGILKKLSLEKYQVIFEEQEVDMEAFLTLTDGDLKELGIKTDGSRQQILAAISELNAG [P19V],-0.346 ± 0.055
17,DEDELTGILKKLSLEKYQSIFEEQEVDMEAFLTLTDGDLKELGIKTDGSRQQILAAISELNAG [P19S],-0.094 ± 0.04
18,DEDELTGILKKLSLEKYQRIFEEQEVDMEAFLTLTDGDLKELGIKTDGSRQQILAAISELNAG [P19R],-0.116 ± 0.057
19,DEDELTGILKKLSLEKYQNIFEEQEVDMEAFLTLTDGDLKELGIKTDGSRQQILAAISELNAG [P19N],-0.059 ± 0.071
20,DEDELTGILKKLSLEKYQHIFEEQEVDMEAFLTLTDGDLKELGIKTDGSRQQILAAISELNAG [P19H],0.005 ± 0.048
21,DEDELTGILKKLSLEKYQYIFEEQEVDMEAFLTLTDGDLKELGIKTDGSRQQILAAISELNAG [P19Y],-0.234 ± 0.054
22,DEDELTGILKKLSLEKYQCIFEEQEVDMEAFLTLTDGDLKELGIKTDGSRQQILAAISELNAG [P19C],-0.247 ± 0.057

row,Variant,abundance fitness
1,DEDELTGILKKLSLEKYQMIFEEQEVDMEAFLTLTDGDLKELGIKTDGSRQQILAAISELNAG [P19M],-0.035 ± 0.15
2,DEDELTGILKKLSLEKYQIIFEEQEVDMEAFLTLTDGDLKELGIKTDGSRQQILAAISELNAG [P19I],-0.509 ± 0.05
3,DEDELTGILKKLSLEKYQKIFEEQEVDMEAFLTLTDGDLKELGIKTDGSRQQILAAISELNAG [P19K],-0.416 ± 0.12
4,DEDELTGILKKLSLEKYQDIFEEQEVDMEAFLTLTDGDLKELGIKTDGSRQQILAAISELNAG [P19D],-0.023 ± 0.083
5,DEDELTGILKKLSLEKYQFIFEEQEVDMEAFLTLTDGDLKELGIKTDGSRQQILAAISELNAG [P19F],-0.285 ± 0.051
6,DEDELTGILKKLSLEKYEPIFEEQEVDMEAFLTLTDGDLKELGIKTDGSRQQILAAISELNAG [Q18E],-0.119 ± 0.046
7,DEDELTGILKKLSLEKYGPIFEEQEVDMEAFLTLTDGDLKELGIKTDGSRQQILAAISELNAG [Q18G],-0.078 ± 0.057
8,DEDELTGILKKLSLEKYIPIFEEQEVDMEAFLTLTDGDLKELGIKTDGSRQQILAAISELNAG [Q18I],-0.051 ± 0.12
9,DEDELTGILKKLSLEKYSPIFEEQEVDMEAFLTLTDGDLKELGIKTDGSRQQILAAISELNAG [Q18S],-0.075 ± 0.075
10,DEDELTGILKKLSLEKYHPIFEEQEVDMEAFLTLTDGDLKELGIKTDGSRQQILAAISELNAG [Q18H],-0.221 ± 0.17
11,DEDELTGILKKLSLEKYVPIFEEQEVDMEAFLTLTDGDLKELGIKTDGSRQQILAAISELNAG [Q18V],-0.12 ± 0.057
12,DEDELTGILKKLSLEKYLPIFEEQEVDMEAFLTLTDGDLKELGIKTDGSRQQILAAISELNAG [Q18L],-0.092 ± 0.052
13,DEDELTGILKKLSLEKYRPIFEEQEVDMEAFLTLTDGDLKELGIKTDGSRQQILAAISELNAG [Q18R],-0.025 ± 0.071
14,DEDELTGILKKLSLEKYDPIFEEQEVDMEAFLTLTDGDLKELGIKTDGSRQQILAAISELNAG [Q18D],-0.344 ± 0.17
15,DEDELTGILKKLSLEKYPPIFEEQEVDMEAFLTLTDGDLKELGIKTDGSRQQILAAISELNAG [Q18P],-0.786 ± 0.092
16,DEDELTGILKKLSLEKYMPIFEEQEVDMEAFLTLTDGDLKELGIKTDGSRQQILAAISELNAG [Q18M],-0.035 ± 0.068
17,DEDELTGILKKLSLEKYTPIFEEQEVDMEAFLTLTDGDLKELGIKTDGSRQQILAAISELNAG [Q18T],-0.076 ± 0.075
18,DEDELTGILKKLSLEKYNPIFEEQEVDMEAFLTLTDGDLKELGIKTDGSRQQILAAISELNAG [Q18N],-0.538 ± 0.5
19,DEDELTGILKKLSLEKYYPIFEEQEVDMEAFLTLTDGDLKELGIKTDGSRQQILAAISELNAG [Q18Y],-0.539 ± 0.2
20,DEDELTGILKKLSLEKYWPIFEEQEVDMEAFLTLTDGDLKELGIKTDGSRQQILAAISELNAG [Q18W],-0.31 ± 0.057
21,DEDELTGILKKLSLEKYFPIFEEQEVDMEAFLTLTDGDLKELGIKTDGSRQQILAAISELNAG [Q18F],-0.407 ± 0.08
